Reference: the DeepSol protein solubility set

Assay: soluble on expression in E. coli; label from the status in PepcDB or PDB records

| Sequence | soluble on expression in E. coli |
| --- | --- |
| MAHHHHHHPPKRAALIQNLRDSYTETSSFAVIEEWAAGTLQEIEGIAKAAVEAHATIRNSTYGRAQAEKSPEQLLGVLQRYQDLCHNVYCQAETIRTVIAIRIPEHKEADNLGVAVQHAVLKVIDELEIKTLGSGEKSGSGGAPTPIGMYALREYLSARSTVEDKLLGSVDAESGKTKGGSQSPSLLLELRQIDADFMLKVELATTHLSTMVRAVINAYLLNWKKLIQPRGGHLDVLYR | soluble |
| MAHHHHHHSLTTDLPAAYHIEQRAHAFPWSEKTFASNQGERYLNFQLTQNGKMAAFAITQVVLDEATLFNIAVDPDYQRQGLGRALLEHLIDELEKRGVATLWLEVRASNAAAIALYESLGFNEATIRRNYYPTTDGREDAIIMALPISMEG | not soluble |
| MAHHHHHHSSGLEVLFQGPEPKKYAVTDDYQLSKQVLGLGVNGKVLECFHRRTGQKCALKLLYDSPKARQEVDHHWQASGGPHIVCILDVYENMHHGKRCLLIIMECMEGGELFSRIQERGDQAFTEREAAEIMRDIGTAIQFLHSHNIAHRDVKPENLLYTSKEKDAVLKLTDFGFAKETTQNALQTPCYTPYYVAPEVLGPEKYDKSCDMWSLGVIMYILLCGFPPFYSNTGQAISPGMKRRIRLGQYGFPNPEWSEVSEDAKQLIRLLLKTDPTERLTITQFMNHPWINQSMVVPQTPLHTARVLQEDKDHWDEVKEEMTSALATMRVDYDQV | soluble |
| MAHHHHHHVREEKLRLRKQIIEHMNSLSKERYTTLSEQIVFSLYEQKEWAEAKTIGITLSMENEVNTYPIIEKAWKEGKRVVVPKCNKETRTMSFRQISNFDQLETVYMNLREPIPALTEEVNADEIDLQIVPGVAYTERGERIGYGGGYYDRYLVHYKGKTLSLAYSFQMVEHIPVEPFDKNVEKIITEKGTMVKNGLV | soluble |
| MAHTITIVGLGNYGIDDLPLGIYKFLKTQDKVYARTLDHPVIESLQDELTFQSFDHVYEAHDQFEDVYNDIVAQLVEAANEKDIVYAVPGHPRVAETTTVKLLALAKDNTDIDVKVLGG | soluble |
| MAHVVILGAGTGGMPAAYEMKEALGSGHEVTLISANDYFQFVPSNPWVGVGWKERDDIAFPIRHYVERKGIHFIAQSAEQIDAEAQNITLADGNTVHYDYLMIATGPKLAFENVPGSDPHEGPVQSICTVDHAERAFAEYQALLREPGPIVIGAMAGASAFGPAYEYAMIVASDLKKRGMRDKIPSFTFITSEPYIGHLGIQGVGDSKGILTKGLKEEGIEAYTNCKVTKVEDNKMYVTQVDEKGETIKEMVLPVKFGMMIPAFKGVPAVAGVEGLCNPGGFVLVDEHQRSKKYANIFAAGIAIAIPPVETTPVPTGAPKTGYMIESMVSAAVHNIKADLEGRKGEQTMGTWNAVCFADMGDRGAAFIALPQLKPRKVDVFAYGRWVHLAKVAFEKYFIRKMKMGVSEPFYEKVLFKMMGITRLKEEDTHRKAS | soluble |
| MAHYPPSKDQLNELIQEVNQWAITNGLSMYPPKFEENPSNASVSPVTIYPTPIPRKCFDEAVQIQPVFNELYARITQDMAQPDSYLHKTTEALALSDSEFTGKLWSLYLATLKSAQYKKQNFRLGIFRSDYLIDKKKGTEQIKQVEFNTVSVSFAGLSEKVDRLHSYLNRANKYDPKGPIYNDQNMVISDSGYLLSKALAKAVESYKSQQSSSTTSDPIVAFIVQRNERNVFDQKVLELNLLEKFGTKSVRLTFDDVNDKLFIDDKTGKLFIRDTEQEIAVVYYRTGYTTTDYTSEKDWEARLFLEKSFAIKAPDLLTQLSGSKKIQQLLTDEGVLGKYISDAEKKSSLLKTFVKIYPLDDTKLGREGKRLALSEPSKYVLKPQREGGGNNVYKENIPNFLKGIEERHWDAYILMELIEPELNENNIILRDNKSYNEPIISELGIYGCVLFNDEQVLSNEFSGSLLRSKFNTSNEGGVAAGFGCLDSIILY | soluble |
| MAIALSTLVEEADRYLDAARIQDYCPNGLQVEGRPQVRRIVSGVTASQALLDAAVEADADVVLVHHGYFWKGENPCVVGMKQRRLKTLLNNDISLLAYHLPLDLHPEVGNNVQLARQLGFEVEGPLEPGNPRSIVLLGSLAEPMQPADFARHVRDALGREPLLVDAGQPIRRIAWCTGGAQGYIDQAIAAGVDAYLTGEVSEQTVHSARENGISFIAAGHHATERYGVQALGDYLGKRFAIEHLFIDCPNPALEHHHHHH | soluble |
| MAIERIQLHTHGDDRGLLISLEQQRNVPFEIRRVYYIFGTRQGVHRGQHAHRQLNQLAVALHGSVTLLLDEGQGQGPEEVVLDDPSQGVLLGRMVWRDLHQFSEDCVLMVLADQYYDPGDYILDYDEFLTEARGVSRLEALEHHHHHH | soluble |
| MAIIPKNYARLESGYREKALKIYPWVCGRCSREFVYSNLRELTVHHIDHDHTNNPEDGSNWELLCLYCHDHEHSKYTEADQYGTTVIAGEDAQKDVGEAKYNPFADLKAMMNKKK | not soluble |
| MAIKDAIEKIVSYFDADEVTDHEDVAKERPVKVQKTEQTPSQQQRKPERPQETVPPRRQHIKSDVQETQVLRSLSLSRSQVNQGSQQMNTTKTTIAIKYPKKYEDAQEIVELLIENECVLIDFQYMLEAQARRCLDFIDGASKVLTGNLQKVGSSMYLLTPINVVVDIEEIGLSHGNQESTFDFDMKRRLEHHHHHH | not soluble |
| MAIQTSNLGYPRIGLQREWKKTLEAFWSNKINEEQFLTTMKEIRLQHVKVQQEKGIELIPIGDFTYYDHVLDTAYMLGFIPSRFSEFTSYLDVYFAMARGSKDHVASEMTKWFNTNYHYIVPEYEEGLQISLKDNRPLRLYEEAKQELGVDGKPVILGPYTFLKLAKGYTQEQFATILKQLVAPYVQLLSELHAAGAQIIQVDEPIFASLTKEEVQQAKEIYEAIRKEVPNATLLLQTYFDSVEENYEEIITFPVSSIGLDFVHGKEGNLNAISKYGFPADKTLAVGCIDGRNIWRADLDEVLTLFTTLQKQVQTKDLIVQPSCSLLHTPIDKTEETHLSTELFDALAFANQKLEELVLIHSALTQGTESISNELETYRNVHHTIRSSAARNREDVKAARTALKEEDFSRPLPFEKRYELQQVALKLPLLPTTTIGSFPQTTEVRQTRKEWRNGIISNEQYEQFIEKETEKWIRYQEEIGLDVLVHGEFERTDMVEYFGERLAGFSFTKNGWVQSYGSRCVKPPVIYGDVAFINGMTIKETVYAQSLTEKVVKGMLTGPVTILNWSFVRNDIPRKEVSYQIALALRHEIELLESSGIRVIQVDEPALREGMPLKEKDWDAYITWAVQSFLLATSSVANETQIHTHMCYSNFEDIVDAIRALDADVISIETSRSHGEFIDTLKHTTYEKGIGLGVYDIHSPRVPSKDEMYKIVEQSLQVCDPKYFWINPDCGLKTRRTEEVIPALEHMVQAAKDARSLLKTNA | not soluble |
| MAITINIYYSGTNGGAREFAKEMIASGIVEAIRAEKGNSRYEYFFPMDDEETVLLIDSWTDQEALDKHHASPMMTRITELREKYDLHMKVERYVSDVTDPLTKDAAFIRK | not soluble |
| MAIVPFKRDPTFYPSPKMAMKAPPEDLAYVACLYTGTGINRADFIAVVDVNPKSETYSKIVHKVELPYINDELHHFGWNACSSALCPNGKPNIERRFLIVPGLRSSRIYIIDTKPNPREPKIIKVIEPEEVKKVSGYSRLHTVHCGPDAIYISALGNEEGEGPGGILMLDHYSFEPLGKWEIDRGDQYLAYDFWWNLPNEVLVSSEWAVPNTIEDGLKLEHLKDRYGNRIHFWDLRKRKRIHSLTLGEENRMALELRPLHDPTKLMGFINMVVSLKDLSSSIWLWFYEDGKWNAEKVIEIPAEPLEGNLPEILKPFKAVPPLVTDIDISLDDKFLYLSLWGIGEVRQYDISNPFKPVLTGKVKLGGIFHRADHPAGHKLTGAPQMLEISRDGRRVYVTNSLYSTWDNQFYPEGLKGWMVKLNANPSGGLEIDKEFFVDFGEARSHQVRLSGGDASSDSYCYP | soluble |
| MAKKDEHLRKPEWLKIKLNTNENYTGLKKLMRENNLHTVCEEAKCPNIHECWAVRRTATFMILGSVCTRACRFCAVKTGLPTELDLQEPERVADSVALMNLKHAVITAVARDDQKDGGAGIFAETVRAIRRKSPFTTIEVLPSDMGGNYDNLKTLMDTRPDILNHNIETVRRLTPRVRARATYDRSLEFLRRAKEMQPDIPTKSSIMIGLGETKEEIIEVMDDLLANNVDIMAIGQYLQPTKKHLKVQKYYHPDEFAELKEIAMQKGFSHCEAGPLVRSSYHADEQVNEASKKR | not soluble |
| MAKKTSSKGKLPPGPLPLPGLGNLLHVDFQNTPYCFDQLRRRFGDVFSLQLAWTPVVVLNGLAAVREALVTHGEDTADRPPVPITQILGFGPRSQGVFLARYGPAWREQRRFSVSTLRNLGLGKKSLEQWVTEEAACLCAAFANHSGRPFRPNGLLDKAVSNVIASLTCGRRFEYDDPRFLRLLDLAQEGLKEESGFLREVLNAVPVDRHIPALAGKVLRFQKAFLTQLDELLTEHRMTWDPAQPPRDLTEAFLAEMEKAKGNPESSFNDENLRIVVADLFSAGMVTTSTTLAWGLLLMILHPDVQRRVQQEIDDVIGQVRRPEMGDQAHMPYTTAVIHEVQRFGDIVPLGMTHMTSRDIEVQGFRIPKGTTLITNLSSVLKDEAVWEKPFRFHPEHFLDAQGHFVKPEAFLPFSAGRRACLGEPLARMELFLFFTSLLQHFSFSVPTGQPRPSHHGVFAFLVSPSPYELCAVPRHHHH | soluble |
| MAKKTSSLLSRRRTRRPGEPPLDLGSIPWLGYALDFGKDAASFLTRMKEKHGDIFTILVGGRYVTVLLDPHSYDAVVWEPRTRLDFHAYAIFLMERIFDVQLPHYSPSDEKARMKLTLLHRELQALTEAMYTNLHAVLLGDATEAGSGWHEMGLLDFSYSFLLRAGYLTLYGIEALPRTHESQAQDRVHSADVFHTFRQLDRLLPKLARGSLSVGDKDHMCSVKSRLWKLLSPARLARRAHRSKWLESYLLHLEEMGVSEEMQARALVLQLWATQGNMGPAAFWLLLFLLKNPEALAAVRGELESILWQAEQPVSQTTTLPQKVLDSTPVLDSVLSESLRLTAAPFITREVVVDLAMPMADGREFNLRRGDRLLLFPFLSPQRDPEIYTDPEVFKYNRFLNPDGSEKKDFYKDGKRLKNYNMPWGAGHNHCLGRSYAVNSIKQFVFLVLVHLDLELINADVEIPEFDLSRYGFGLMQPEHDVPVRYRIRPHHHH | soluble |
| MAKKVAIYTRVSTTNQAEEGFSIDEQIDRLTKYAEAMGWQVSDTYTDAGFSGAKLERPAMQRLINDIENKAFDTVLVYKLDRLSRSVRDTLYLVKDVFTKNKIDFISLNESIDTSSAMGSLFLTILSAINEFERELEY | soluble |
| MAKNTSSNAFRKIDVDQYNEDNFREDDGVESAAAGPDESEITTLLTQGKSVEALLSALQNAPLRCKNQNVKDHALNITLRVLLSIKSTQMDQAIDTLDQNDLIDVLMKYIYRGFEIPSEGSSGHLLQWHEKAFAKGGVGCIVRVLSDTNRALEHHHHHH | soluble |
| MAKTGMYVGLDIGTTSVKVVVAEYIEGQMNIIGVGNAKSDGLNRGIVVDIDQTVQAIQRAVRQAEEKAGIQIKSVNVGLPANLLEVESCQGMIAVSSESKEITDEDVRNVASAALVRSTPPERQIVAILPQDFTVDGFEGIKDPRGMLGVRMEMFGVVYTGPKTIIHNIRKCVEKAGLGINELVITPLALTETILTDGEKDFGTIVIDMGGGQTTTSVIHDKQLKFTHVNQEGGEFITKDISIVLNTSFNNAEALKINYGDAYPERTSANEEFPVDVIGKSEPVRVDERYLSEIIEARVEQILRKSKEVLDEIDAFELPGGVVLTGGAASMPGIVDLAQEIFEANVKLYVPNHMGLRNPVFANVISIVEYSAQLNDIYHIAKYAIPGEKSKPAQSVAVQQEVRYDTYAEQPQEEYEEFNERESGEKVTGKIKDFFSNIFD | not soluble |
